Measured values published in article PMC6420115.
pKd: −log10 of the molar value.

How the values were obtained:
[1] = target: full length PfCSP (NF54 strain) (Plasmodium falciparum (NF54 strain)) (UniProt P19597)
minimal NANP3 peptide = assay: SPR; conditions: parent: est. 2.1e-6 M; read off a plot

full length PfCSP (NF54 strain) (Plasmodium falciparum (NF54 strain)), sequence (P19597 19-374): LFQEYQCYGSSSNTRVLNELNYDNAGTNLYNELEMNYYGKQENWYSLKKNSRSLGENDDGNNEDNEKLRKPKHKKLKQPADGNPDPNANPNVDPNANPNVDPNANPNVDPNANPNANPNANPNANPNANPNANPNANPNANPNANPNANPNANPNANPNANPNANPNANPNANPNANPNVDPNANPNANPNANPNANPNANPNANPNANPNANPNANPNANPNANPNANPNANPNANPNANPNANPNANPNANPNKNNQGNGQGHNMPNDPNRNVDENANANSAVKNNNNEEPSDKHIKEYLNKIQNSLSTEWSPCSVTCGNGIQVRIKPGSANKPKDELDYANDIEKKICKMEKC

Substance	other [1] [µg/mL]	pKd (minimal NANP3 peptide)
2163_H.S31_Nmut IgG (antibody)	0.12	
2163_KN IgG (2163_H.N56_Kmut_K.S93_Nmut) (antibody)	0.21	
1210_H.N31_Srev IgG (antibody)	0.14	
2163 IgG (germline antibody 2163) H:N56K; K:S93N		5.59
2163_H.V50_Imut IgG (antibody)	0.16	
2163 IgG (germline antibody 2163)	0.2	
1210_NS IgG (1210_H.K56_Nrev_K.N93_Srev) (antibody)	0.17	
2163 IgG (germline antibody 2163) H:N56K		5.59
1210_H.V50_Imut IgG (antibody)	0.16	
1210_H.K56_Nrev IgG (antibody)	0.14	
2163 IgG (germline antibody 2163) H:V50I		6.89
2163 IgG (germline antibody 2163) H:S31N		5.82
